This note sets out measurements from PMC8155123, “A novel fungal metal-dependent α-L-arabinofuranosidase of family 54 glycoside hydrolase shows expanded substrate specificity” (Scientific Reports, 2021).

A word on the Km: it is the concentration of substrate that gives half-maximal velocity. Usually kcat stands for the number of substrate molecules converted per active site and unit of time at saturation. By kcat/Km is commonly meant the turnover number divided by the Michaelis constant.

Assay in all cases: purified protein
Holding throughout (conditions): pH 6.5, 55 °C, 10 min, sodium phosphate, metal-dependent enzyme

Substrate in series [1]: O=[N+]([O-])c1ccc(O[C@H]2OC[C@@H](O)[C@@H](O)[C@@H]2O)cc1
Substrate in series [2]: O=[N+]([O-])c1ccc(O[C@@H]2O[C@H](CO)[C@H](O)[C@H](O)[C@H]2O)cc1
Substrate in series [3]: O=[N+]([O-])c1ccc(O[C@H]2O[C@H](CO)[C@@H](O)[C@@H]2O)cc1
Substrate in series [4]: C[C@H]1O[C@@H](Oc2ccc([N+](=O)[O-])cc2)[C@H](O)[C@@H](O)[C@H]1O

B1: ThABF (Trichoderma harzianum) (protein)
chain: GPCDIYSSGGTPCVAAHSTTRALYSAYTGPLYQVKRGSDGATTTISPLSSGVANAAAQDSFCAGTTCLITIIYDQSGRGNHLTQAPPGGFNGPESNGYDNLASAIGAPVTLNGQKAYGVFISPGTGYRNNAASGTAKGDAAEGMYAVLDGTHYNGACCFDYGNAETSSRDTGNGHMEAIYYGDSTVWGTGSGNGPWIMADLENGLFSGSAVHNNAGDPSISYRFVTAAVKGQPNQWAIRGGNSASGSLSTFYNGARPSASGYNPMSKEGAIILGIGGDNSNGAQGTFYEGVMTSGYPSDATENSVQANIVAAKYAVTSLTSGPALTTGSSVSLRATTACCTTRYITHSGSTVNTQVVSSSSATAPKQQASWTVRAGLGNSGCFSFESKDTPGSYIRHNNFVLLLNANDGSKQFAEDATFCPQAGLNGQGSSLRAWGYPTRYFRHYDNVLYVASNGGVHTFDATGSFNDDVSFVISASFA
Consider B1, for which the Michaelis constant (Km) in series [1] is 3.30 ± 0.16 mM; in series [2] it was 1.68 ± 0.12 mM; in series [3] it was 6.75 ± 3.24 mM; in series [4], 6.51 ± 1.00 mM. Moreover, the kcat in series [1] worked out at 13.4 s⁻¹; in series [2], 35.5 s⁻¹; in series [3], 1.61 s⁻¹; in series [4], 35.7 s⁻¹. Further, the kcat/Km stood at 4070 M⁻¹ s⁻¹ in series [1], 21100 M⁻¹ s⁻¹ in series [2], 238 M⁻¹ s⁻¹ in series [3] and 5480 M⁻¹ s⁻¹ in series [4].
